Assay [1] has as its target T1, recombinant Plasmodium falciparum circumsporozoite protein (rPfCSP) (Plasmodium falciparum 3D7, UniProt Q7K740 19-374). The assay can be described thus: ITC; first site (KD1). (In general: In ITC the heat of successive injections is recorded.)
Assay [2] deals with T1, recombinant Plasmodium falciparum …. The assay can be described thus: ITC; second site (KD2).

T1 sequence (Q7K740 19-374): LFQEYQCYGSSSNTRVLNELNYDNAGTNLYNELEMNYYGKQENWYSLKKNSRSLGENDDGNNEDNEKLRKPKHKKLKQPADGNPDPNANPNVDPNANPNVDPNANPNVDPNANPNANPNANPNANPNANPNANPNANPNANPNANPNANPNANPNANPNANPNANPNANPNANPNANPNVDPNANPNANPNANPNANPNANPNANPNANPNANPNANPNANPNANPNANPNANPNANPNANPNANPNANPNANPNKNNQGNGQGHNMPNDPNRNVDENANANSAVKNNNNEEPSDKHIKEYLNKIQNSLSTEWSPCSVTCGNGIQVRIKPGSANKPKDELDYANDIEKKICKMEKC

B1: CIS43 human monoclonal antibody (antibody, V domains shown)
VH: QVQLVQSGAEVKKPGASVKVSCKASGYTFTSYAIHWVRQAPGQRLEWMGWIKAGNGNTRYSQKFQDRVTITRDTSTTTAYMELSSLRSEDTAVYYCALLTVLTPDDAFDIWGQGTMVTVSS
VL: not shown
One may read the Kd as the equilibrium constant for the complex coming apart. Consider B1, for which the values for the dissociation constant Kd in assay [1] and in assay [2] were 7.9 nM and 42 nM, respectively.

Values taken from PMC7934869 (2021).
